Target: T1, M-tropic HIV-1MN envelope glycoprotein gp120 (HIV-1 (strain MN), UniProt P05877 32-513)
T1 construct: domain: gp120; also called HIV-1 gp120; HIV-1MN gp120
Test: fluorescent bead adhesion assay, flow cytometry

B1: DC-SIGN (receptor)
chain: MSDSKEPRLQQLGLLEEEQLRGLGFRQTRGYKSLAGCLGHGPLVLQLLSFTLLAGLLVQVSKVPSSISQEQSRQDAIYQNLTQLKAAVGELSEKSKLQEIYQELTQLKAAVGELPEKSKLQEIYQELTRLKAAVGELPEKSKLQEIYQELTWLKAAVGELPEKSKMQEIYQELTRLKAAVGELPEKSKQQEIYQELTRLKAAVGELPEKSKQQEIYQELTRLKAAVGELPEKSKQQEIYQELTQLKAAVERLCHPCPWEWTFFQGNCYFMSNSQRNWHDSITACKEVGAQLVVIKSAEEQNFLQLQSSRSNRFTWMGLSDLNQEGTWQWVDGSPLLPSFKQYWNRGEPNNVGEEDCAEFSGNGWNDDKCNLAKFWICKKSAASCSRDEEQFLSPAPATPNPPPA
notes: also called THP-DC-SIGN (THP-1 transfectant)
- binding result: binds
